Source: patent publication US20110038874A1 (SHANGHAI AOSAIERSI BIOTECH, published 2011)
Values belong to the molecule of their own block, whether it stands above or below them.

How the values were obtained:
[1] = target: VEGFR2 expressed on HUVEC cells (human) (UniProt P35968); test: cell-based or functional assay
mouse VEGFR2 = target: T1, mouse VEGFR2 (mouse, UniProt P35918 20-762, limits assumed); test: not described ("a further study")
T1 construct: Assay and construct of the 'further study' are not described
T1 sequence (P35918 20-762 limits assumed): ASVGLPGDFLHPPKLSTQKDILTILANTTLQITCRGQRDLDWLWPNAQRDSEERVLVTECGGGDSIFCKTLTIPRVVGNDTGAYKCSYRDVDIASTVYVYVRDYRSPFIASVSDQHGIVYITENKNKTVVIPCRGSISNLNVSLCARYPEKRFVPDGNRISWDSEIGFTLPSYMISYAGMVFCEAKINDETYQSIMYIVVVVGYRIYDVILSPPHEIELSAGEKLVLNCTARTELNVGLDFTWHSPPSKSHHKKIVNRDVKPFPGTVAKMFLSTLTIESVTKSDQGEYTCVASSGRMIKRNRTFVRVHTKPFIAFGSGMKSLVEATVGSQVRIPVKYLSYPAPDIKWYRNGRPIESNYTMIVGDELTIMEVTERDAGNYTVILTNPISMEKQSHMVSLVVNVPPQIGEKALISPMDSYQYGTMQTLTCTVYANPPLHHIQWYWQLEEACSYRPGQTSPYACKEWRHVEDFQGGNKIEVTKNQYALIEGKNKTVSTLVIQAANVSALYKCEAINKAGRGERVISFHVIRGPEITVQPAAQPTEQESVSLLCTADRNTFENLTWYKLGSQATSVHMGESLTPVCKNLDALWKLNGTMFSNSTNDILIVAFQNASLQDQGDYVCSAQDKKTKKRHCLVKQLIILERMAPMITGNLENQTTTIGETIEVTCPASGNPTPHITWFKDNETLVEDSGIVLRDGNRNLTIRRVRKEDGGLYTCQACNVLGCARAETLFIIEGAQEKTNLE

Chain of VEGFR2 expressed on HUVEC cells (human) (P35968 20-1356): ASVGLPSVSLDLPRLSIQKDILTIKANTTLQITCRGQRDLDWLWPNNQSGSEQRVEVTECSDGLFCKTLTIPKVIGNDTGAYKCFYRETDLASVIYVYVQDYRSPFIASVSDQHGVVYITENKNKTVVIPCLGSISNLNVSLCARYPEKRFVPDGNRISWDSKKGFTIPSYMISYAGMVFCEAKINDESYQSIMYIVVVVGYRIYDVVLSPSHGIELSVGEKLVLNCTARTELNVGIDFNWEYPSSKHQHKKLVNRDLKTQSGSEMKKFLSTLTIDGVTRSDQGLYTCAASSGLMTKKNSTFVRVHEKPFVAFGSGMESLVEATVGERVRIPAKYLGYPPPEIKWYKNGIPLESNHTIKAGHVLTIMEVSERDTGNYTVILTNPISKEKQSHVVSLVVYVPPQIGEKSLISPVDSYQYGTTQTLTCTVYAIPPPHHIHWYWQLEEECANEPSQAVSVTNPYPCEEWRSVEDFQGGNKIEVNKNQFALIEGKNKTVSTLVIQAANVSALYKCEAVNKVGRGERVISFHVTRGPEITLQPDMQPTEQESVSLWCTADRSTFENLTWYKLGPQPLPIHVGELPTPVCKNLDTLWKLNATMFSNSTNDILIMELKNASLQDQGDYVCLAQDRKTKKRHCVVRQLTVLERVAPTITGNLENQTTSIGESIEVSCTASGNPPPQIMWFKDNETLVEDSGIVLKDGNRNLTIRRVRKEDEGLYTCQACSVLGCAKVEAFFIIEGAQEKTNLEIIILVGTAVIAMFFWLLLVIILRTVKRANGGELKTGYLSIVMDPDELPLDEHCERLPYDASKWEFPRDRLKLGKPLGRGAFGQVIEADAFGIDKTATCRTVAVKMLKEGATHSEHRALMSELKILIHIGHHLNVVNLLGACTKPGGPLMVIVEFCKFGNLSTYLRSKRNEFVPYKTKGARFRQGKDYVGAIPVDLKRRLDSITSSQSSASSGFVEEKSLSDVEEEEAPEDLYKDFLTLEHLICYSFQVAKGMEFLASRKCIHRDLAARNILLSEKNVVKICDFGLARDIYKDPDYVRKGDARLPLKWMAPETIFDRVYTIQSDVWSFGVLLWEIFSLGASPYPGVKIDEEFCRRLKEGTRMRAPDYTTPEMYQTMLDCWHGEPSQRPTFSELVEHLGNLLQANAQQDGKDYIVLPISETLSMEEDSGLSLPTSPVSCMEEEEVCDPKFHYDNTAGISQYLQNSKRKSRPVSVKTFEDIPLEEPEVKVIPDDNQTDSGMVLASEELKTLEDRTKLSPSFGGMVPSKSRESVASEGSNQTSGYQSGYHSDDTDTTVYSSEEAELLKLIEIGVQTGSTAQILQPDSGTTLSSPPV

- HUVEC proliferation (VEGF-induced, cell count after 48 hours) [1]: 1 µg/mL
Molecule: normal IgG (antibody)

- binding result (mouse VEGFR2): no binding
B1: AC88 anti-VEGFR2 monoclonal antibody (antibody, human IgG1, kappa, V domains shown)
VH: EVQLVESGGGLVKPGGSLRLSCAASGFTFSSYSMTWVRQAPGKGLEWVSSISSSSSYIYYADSVKGRFTISRDNAKNSLYLQMNSLRAEDTAVYYCAKATSGYMDVWGQGTTVTVSS
VL: DIQMTQSPSSLSASVGDRVTITCQASQDINNYLNWYQQKPGKAPKLLIYDASNLETGVPSRFSGSGSGTDFTLTISSLESEDIATYYCQQHVNYPLTFGGGTKVEIKR
notes: Fully human IgG1 kappa from a hybridoma; also called AC88 antibody; anti-VEGFR2 antibody
